Assay results taken from publication PMC3871824, “In vitro binding of Sorghum bicolor transcription factors ABI4 and ABI5 to a conserved region of a GA 2-OXIDASE promoter: possible role of this interaction in the expression of seed dormancy”.

Key:
[1] = target: T1, SbABI5 (rABI5) (Sorghum bicolor (inbred line IS9530), UniProt C5XSV4 1-346); test: EMSA; four complexes; 25 mM Tris-HCl pH 7.4, 30 mM KCl, 3 mM MgCl2, 0.5 mM EDTA, 14 mM 2-mercaptoethanol, 1 mM DTT, 10% glycerol, 0.05% NP-40, 10 ug/ml BSA, 50 ug/ml salmon sperm DNA, 40 ng probe, 30 min, room temperature; conditions: protein: recombinant; tags: C-terminal His (pET24a); chain copies: 2; label: 5'-biotin on strand 1; blunt
T1 sequence: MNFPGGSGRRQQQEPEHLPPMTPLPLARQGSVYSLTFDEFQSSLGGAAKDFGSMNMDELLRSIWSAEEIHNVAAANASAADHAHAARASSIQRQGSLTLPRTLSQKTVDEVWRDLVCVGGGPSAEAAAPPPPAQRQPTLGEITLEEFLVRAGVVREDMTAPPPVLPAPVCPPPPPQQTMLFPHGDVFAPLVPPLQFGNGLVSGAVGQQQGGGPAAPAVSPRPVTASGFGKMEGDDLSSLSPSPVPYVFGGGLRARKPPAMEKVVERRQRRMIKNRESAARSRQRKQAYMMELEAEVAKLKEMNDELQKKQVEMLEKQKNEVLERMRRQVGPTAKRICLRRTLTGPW

[2] = target: T2, SbABI4 (rABI4) (Sorghum bicolor (inbred line IS9530), UniProt A0A1B6P7N1 1-257); test: EMSA; five complexes; 25 mM Tris-HCl pH 7.4, 30 mM KCl, 3 mM MgCl2, 0.5 mM EDTA, 14 mM 2-mercaptoethanol, 1 mM DTT, 10% glycerol, 0.05% NP-40, 10 ug/ml BSA, 50 ug/ml salmon sperm DNA, 40 ng probe, 30 min, room temperature; conditions: protein: recombinant; tags: C-terminal His (pET24a); label: 5'-biotin on strand 1; blunt
T2 sequence (A0A1B6P7N1 entry or part of it): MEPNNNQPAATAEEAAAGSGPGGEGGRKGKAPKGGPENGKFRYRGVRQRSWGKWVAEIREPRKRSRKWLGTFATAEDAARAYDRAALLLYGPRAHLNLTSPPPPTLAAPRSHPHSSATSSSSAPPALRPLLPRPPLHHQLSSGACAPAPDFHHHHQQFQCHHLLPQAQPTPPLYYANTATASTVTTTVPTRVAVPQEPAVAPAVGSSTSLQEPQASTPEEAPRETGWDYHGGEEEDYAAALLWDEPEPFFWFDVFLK

[3] = target: T2, SbABI4 (rABI4); test: competition; 200-600 ng vs 40 ng N1; no effect; 25 mM Tris-HCl pH 7.4, 30 mM KCl, 3 mM MgCl2, 0.5 mM EDTA, 14 mM 2-mercaptoethanol, 1 mM DTT, 10% glycerol, 0.05% NP-40, 10 ug/ml BSA, 50 ug/ml salmon sperm DNA, 40 ng probe, 30 min, room temperature; conditions: protein: recombinant; tags: C-terminal His (pET24a); blunt
[4] = target: T1, SbABI5 (rABI5); test: as above; conditions: protein: recombinant; tags: C-terminal His (pET24a); chain copies: 2; blunt
[5] = target: T2, SbABI4 (rABI4); test: EMSA; additional retarded complex; 25 mM Tris-HCl pH 7.4, 30 mM KCl, 3 mM MgCl2, 0.5 mM EDTA, 14 mM 2-mercaptoethanol, 1 mM DTT, 10% glycerol, 0.05% NP-40, 10 ug/ml BSA, 50 ug/ml salmon sperm DNA, 40 ng probe, 30 min, room temperature; conditions: protein: recombinant; tags: C-terminal His (pET24a); label: 5'-biotin on strand 1; blunt
[6] = target: T1, SbABI5 (rABI5); test: EMSA; 25 mM Tris-HCl pH 7.4, 30 mM KCl, 3 mM MgCl2, 0.5 mM EDTA, 14 mM 2-mercaptoethanol, 1 mM DTT, 10% glycerol, 0.05% NP-40, 10 ug/ml BSA, 50 ug/ml salmon sperm DNA, 40 ng probe, 30 min, room temperature; conditions: protein: recombinant; tags: C-terminal His (pET24a); chain copies: 2; label: 5'-biotin on strand 1; blunt

B1: AtEm6 promoter probe 186 bp (dsDNA)
DNA 1: AGTTAAAGAACACGCGGCGAAGAAGTACGGCCACTACCACGTTCAAAGTATACGTCAGCTAATAAAGTCAGACACGTGGCATGTCACCAAGAAAGAAGAGCATACGTATGACGTACCGATTGTCCCTGAGTCACCACGTCGAACATCCACGATGCAACACAACCAAAACGCCCTCCGGATTGA
DNA 2: TCAATCCGGAGGGCGTTTTGGTTGTGTTGCATCGTGGATGTTCGACGTGGTGACTCAGGGACAATCGGTACGTCATACGTATGCTCTTCTTTCTTGGTGACATGCCACGTGTCTGACTTTATTAGCTGACGTATACTTTGAACGTGGTAGTGGCCGTACTTCTTCGCCGCGTGTTCTTTAACT
binding result [1]: binds | binding result [2]: binds

B2: SbGAMyb non-specific competitor 183 bp (dsDNA)
DNA 1: TCTGGGAAGAACCAACAACCATCGGTCCGAAGTTCAAGTTCTTCTGCTGGCACACCTTGTGAGACTACTACGGTGGTTAGCCCAGAGTTTGATATGGGCCAGGAATATTGGGAAGAACAGCCTGGTTCTTTCCTCAGTGAATATGCTCATTTTAGTGGAAATTCTTTGACCGAATCCACTCCT
DNA 2: AGGAGTGGATTCGGTCAAAGAATTTCCACTAAAATGAGCATATTCACTGAGGAAAGAACCAGGCTGTTCTTCCCAATATTCCTGGCCCATATCAAACTCTGGGCTAACCACCGTAGTAGTCTCACAAGGTGTGCCAGCAGAAGAACTTGAACTTCGGACCGATGGTTGTTGGTTCTTCCCAGA
binding result [3]: no binding | binding result [4]: no binding

B3: SbGA2ox3 probe a (intact ABRE and CE) (dsDNA)
DNA 1: GGGCGCCGTGGGAAAACTGCTATTGGCCGGCGTGCCATCGCCTCGTATCGTATGCGTCTCCCATGGAGCCATGCATGCAGCGCGGCGGGCCGACCTGCCACCGGTGGATCGCGTCCGGACACGTCGCGCCC
DNA 2: GGGCGCGACGTGTCCGGACGCGATCCACCGGTGGCAGGTCGGCCCGCCGCGCTGCATGCATGGCTCCATGGGAGACGCATACGATACGAGGCGATGGCACGCCGGCCAATAGCAGTTTTCCCACGGCGCCC
binding result [5]: binds | binding result [6]: binds
